Positions of bridges follow the written chain, without caps; N, C: chain ends. Non-standard residues stand in square brackets, D forms with d. Residues, ends and D or L forms follow the SMILES beside them. *: point of attachment. X1 = CCN(CC)c1ccc2c(-c3ccc(S(=O)(=O)*)cc3S(=O)(=O)[O-])c3ccc(=[N+](CC)CC)cc-3oc2c1; Biotin = O=C1N[C@H]2[C@H](CS[C@H]2CCCCC(=O)*)N1; Dopa = N[C@@H](Cc1ccc(O)c(O)c1)C(=O)O; Dap = NC[C@H](N)C(=O)O
Experiments:
[1] = tested on: bovine brain endothelial cells; assay: Transport across the BBB, in vitro bovine cell assay (co-culture, transwell); details: bovine cell model; for Transport (%) (2h) / Papp (x 10^6) cm/s: 37 °C, Ringer-HEPES pH 7.4, 200 µM (Example 21: 1.75 µM), 2 h; for Papp (x 10^6) cm/s: triplicate; for detection of the cargo alone in the acceptor compartments by MALDI-TOF MS: after the 2 h assay, cargo without shuttle
From the text: (§1) The evaluation method chosen to test the compounds of formula (I) and (II) of the invention was a cell-based assay consisting of a co-culture of brain endothelial cells and astrocytes, which allows to evaluate or to predict the transport of compounds through the BBB. The co-culture method used was described by Gaillard and de Boer in 2008 (Gaillard, PJ et al. "2B-Trans technology: targeted drug delivery across the blood-brain barrier" Methods Mol Biol 2008, vol. 437 pp. 161-175) and consists in seeding of rat astrocytes in a side of a polycarbonate filter (transwell) and bovine brain endothelial cells on the other side of the filter. Under these conditions endothelial cells are able to reach the confluence mimicking the BBB. […] Is commonly used model for permeation studies and toxicity of compounds across the BBB.
(§2) The co-culture assay was used to determine the capacity of the constructs cargo-shuttle to cross the BBB. The apparent permeability of the compounds was measured in triplicate at a concentration of 200 µ M for Examples 1, 2, 3, 5, 10, 13, 15, 16, 17 and 19 and at a concentration of 1.75 µM for Example 21. All the assays were performed with transendothelial electrical resistance values equal or higher than 100 Ω · cm^2 and were carried out in the presence of lucifer yellow to assess the integrity of the cell membrane during the test. The permeability tests were performed in Ringer-HEPES buffer at pH 7.4. The compound of interest was dissolved in the buffer to the desired concentration.
(§3) Once the endothelial cells were confluent on the filters (transwells) these were washed with Ringer-HEPES buffer. The acceptor well was filled with 800 µ L of Ringer-HEPES buffer and the donor well with 200 µL of the solution of the compound to be studied. The system was incubated at 37 °C and 5% CO2 for 2 h. After that time the content of the acceptor and donor compartments were analyzed by HPLC-UV, direct ELISA or fluorescence (depending on cargo anchored to the shuttle). […] The apparent permeability was calculated using the following equation: Papp = (dQ/dt) * (1/A) * (1/CO) (cm/s), where (dQ/dt) is the amount of compound present in the compartment acceptor function of time (nmol/s). A is the area of the filter(cm2) and CO is the initial concentration of the compound applied in the donor compartment (nmol/mL).

[2] = as above; details: pH 7.4; for Papp at 2 h: bovine
From the text: as §1, §2, §3

[3] = tested on: human endothelial cells derived from hematopoietic stem cells; assay: Transport across the BBB, in vitro human cell assay (co-culture, transwell); format: in vitro ADME; details: human cell model, 37 °C, 25 nM Examples 22 and 23, 30 nM Example 24, 5 nM Example 25; for Transport (%) (2h): Ringer-HEPES pH 7.4, 200 µM peptides
Protocol: (§4) Due to the great interest to know whether the cargo-BBB shuttle conjugates would be transported across human brain endothelial cells, some of the most relevant cargoes for therapy and diagnosis were assayed in a novel human-based BBB cell model. In this case, the co-culture method used was described by Cecchelli et al. (Cecchelli et al. PloS One. 2014. vol9. pp. e99733) and consists in seeding bovine pericytes in the bottom of a 12-well plate and human endothelial cells derived from hematopoietic stem cells on a transwell filter.
(§5) The compound of interest was disolved or buffer-exhanged and diluted to the desired concentration.
(§6) Cetuximab and cetuximab conjugates were radiolabelled to be assayed in the cell model. Pierce^(R) iodination beads were used following the instructions provided by the manufacturer.
(§7) The apparent permeability was calculated using the same equation as for the bovine cell model.

[4] = Stability of the shuttles in human serum; format: in vitro ADME; details: HBSS, 37 °C, 90% human serum
Protocol: Regarding to the stability study in human serum of the BBB-shuttle (examples 1, 2, 3 and 5), the peptides were incubated at a concentration of 400 µM in buffer HBSS at 37 °C in the presence of 90% human serum. At a range of times, 100 µL aliquots were collected to which methanol was added in order to precipitate the serum proteins. Samples were centrifuged, filtered and analyzed by HPLC-UV and MALDI-TOF MS to determine the degree of degradation of the BBB-shuttle. […] The half life of the derivative bearing a single disulfide bond was 3 h (examples 2), whereas that of the linear version was no more than 8 min.

[5] = Transport across the BBB, in vitro human cell assay (co-culture, transwell); format: in vitro ADME; details: human cell model, 37 °C, Ringer-HEPES pH 7.4, 200 µM peptides, 25 nM Examples 22 and 23, 30 nM Example 24, 5 nM Example 25, read-out: Papp (x 10^6)
Protocol: as §4, §5, §6, §7

5(6)-Carboxyfluorescein-Cys-Asn-Cys-Lys-Ala-Pro-Glu-Thr-Ala-Leu-Cys-Ala-Ala-Ala-Cys-His-NH2 ({5(6)‑carboxyfluorescein}-CNCKAPETALCAAACH-NH2; disulfide 1-11, 3-15) [Example 10]
Transport (%) (2h) [1]: 3.7±1.8%
Papp (x 10^6) cm/s [1]: 3.1±1.5 (x 10^6) cm/s

5(6)-carboxyfluorescein
detection of the cargo alone in the acceptor compartments by MALDI-TOF MS [1]: not detected

CC(C)C[C@@H]1NC(=O)[C@H](C)NC(=O)[C@H]([C@@H](C)O)NC(=O)[C@H](CCC(=O)O)NC(=O)[C@@H]2CCCN2C(=O)[C@H](C)NC(=O)[C@H](CCCCN)NC(=O)[C@@H](N)CNC(=O)C[C@@H](C(N)=O)NC1=O [Example 3, H-Dap-Lys-Ala-Pro-Glu-Thr-Ala-Leu-Asp-NH2] (H-[Dap]KAPETALD-NH2; lactam 1-9)
Papp at 2 h [2]: 5.1 ± 0.6 ×10⁻⁶ cm/s
Transport (%) (2h) [1]: 6.0±0.7%
Transport (%) (2h) [3]: 10.9±1.1%
degradation in human serum ([4]; 400 µM, 24 h): No degradation

CCN(CC)c1ccc2c(-c3ccc(S(=O)(=O)NCC(=O)N[C@H]4CSSC[C@@H]5NC(=O)[C@H](CC(C)C)NC(=O)[C@H](C)NC(=O)[C@H]([C@@H](C)O)NC(=O)[C@H](CCC(=O)O)NC(=O)[C@@H]6CCCN6C(=O)[C@H](C)NC(=O)[C@H](CCCCN)NC(=O)[C@H](CSSC[C@@H](C(=O)N[C@@H](Cc6c[nH]cn6)C(N)=O)NC(=O)[C@H](C)NC(=O)[C@H](C)NC(=O)[C@H](C)NC5=O)NC(=O)[C@H](CC(N)=O)NC4=O)cc3S(=O)(=O)[O-])c3ccc(=[N+](CC)CC)cc-3oc2c1 [Example 13, sulforhodamine b-Gly-Cys-Asn-Cys-Lys-Ala-Pro-Glu-Thr-Ala-Leu-Cys-Ala-Ala-Ala-Cys-His-NH2] (X1-GCNCKAPETALCAAACH-NH2; disulfide 2-12, 4-16)
Papp [2]: 2 ± 0.3 ×10⁻⁶ cm/s
Transport (%) (2h) [1]: 2.4±0.4%

CC(C)C[C@@H]1NC(=O)[C@H](C)NC(=O)[C@H]([C@@H](C)O)NC(=O)[C@H](CCC(=O)O)NC(=O)[C@@H]2CCCN2C(=O)[C@H](C)NC(=O)[C@H](CCCCN)NC(=O)[C@@H]2CSSC[C@@H](C(=O)N[C@@H](Cc3c[nH]cn3)C(N)=O)NC(=O)[C@H](C)NC(=O)[C@H](C)NC(=O)[C@H](C)NC(=O)[C@H](CSSC[C@H](NC(=O)[C@@H](N)Cc3ccc(O)c(O)c3)C(=O)N[C@@H](CC(N)=O)C(=O)N2)NC1=O [Example 16, L-Dopa-Cys-Asn-Cys-Lys-Ala-Pro-Glu-Thr-Ala-Leu-Cys-Ala-Ala-Ala-Cys-His-NH2] (H-[Dopa]CNCKAPETALCAAACH-NH2; disulfide 2-12, 4-16)
Papp at 2 h [2]: 2.6 ± 0.3 ×10⁻⁶ cm/s
Transport (%) (2h) [1]: 3.1±0.3%

CC(C)C[C@@H]1NC(=O)[C@H](C)NC(=O)[C@H]([C@@H](C)O)NC(=O)[C@H](CCC(=O)O)NC(=O)[C@@H]2CCCN2C(=O)[C@H](C)NC(=O)[C@H](CCCCN)NC(=O)[C@@H](NC(=O)[C@@H](N)Cc2ccc(O)c(O)c2)CSSC[C@@H](C(N)=O)NC1=O [Example 17, L-Dopa-Cys-Lys-Ala-Pro-Glu-Thr-Ala-Leu-Cys-NH2] (H-[Dopa]CKAPETALC-NH2; disulfide 2-10)
Papp at 2 h [2]: 2.4 ×10⁻⁶ cm/s
Transport (%) (2h) [1]: 2.9%

CC(C)C[C@@H]1NC(=O)[C@H](C)NC(=O)[C@H]([C@@H](C)O)NC(=O)[C@H](CCC(=O)O)NC(=O)[C@@H]2CCCN2C(=O)[C@H](C)NC(=O)[C@H](CCCCN)NC(=O)[C@@H](NC(=O)[C@@H](N)Cc2ccc(O)c(O)c2)CNC(=O)C[C@@H](C(N)=O)NC1=O [Example 18, L-Dopa-Dap-Lys-Ala-Pro-Glu-Thr-Ala-Leu-Asp-NH2] (H-[Dopa][Dap]KAPETALD-NH2; lactam 2-10)
Papp at 2 h [5]: 4 ± 1.3 ×10⁻⁶ cm/s
Transport (%) (2h) [3]: 6.6±2.1%

CC(C)C[C@@H]1NC(=O)[C@H](C)NC(=O)[C@H]([C@@H](C)O)NC(=O)[C@H](CCC(=O)O)NC(=O)[C@@H]2CCCN2C(=O)[C@H](C)NC(=O)[C@H](CCCCN)NC(=O)[C@@H]2CSSC[C@@H](C(=O)N[C@@H](Cc3c[nH]cn3)C(N)=O)NC(=O)[C@H](C)NC(=O)[C@H](C)NC(=O)[C@H](C)NC(=O)[C@H](CSSC[C@H](NC(=O)CNC(=O)[C@H](CC(=O)O)NC(=O)[C@H](Cc3ccccc3)NC(=O)[C@H](Cc3ccccc3)NC(=O)[C@@H]3CCCN3C(=O)[C@@H](N)CC(C)C)C(=O)N[C@@H](CC(N)=O)C(=O)N2)NC1=O [Example 19] (H-LPFFDGCNCKAPETALCAAACH-NH2; disulfide 7-17, 9-21)
Papp at 2 h [2]: 1.5 ± 0.4 ×10⁻⁶ cm/s
Transport (%) (2h) [1]: 1.8±0.5%

N[C@@H](Cc1ccc(O)c(O)c1)C(=O)O [L-dopa]
detection of the cargo alone in the acceptor compartments by MALDI-TOF MS [1]: not detected

O=C(O)CCCC[C@@H]1SC[C@@H]2NC(=O)N[C@@H]21 [biotin]
detection of the cargo alone in the acceptor compartments by MALDI-TOF MS [1]: not detected

CCN(CC)c1ccc2c(-c3ccc(S(=O)(=O)O)cc3S(=O)(=O)[O-])c3ccc(=[N+](CC)CC)cc-3oc2c1 [sulforhodamine b]
detection of the cargo alone in the acceptor compartments by MALDI-TOF MS [1]: not detected

Biotin-CNCKAPETALCAAACH-NH2 (cysteine pairing not given here) [Example 15]
Transport (%) (2h) [1]: 1.9±0.8%

Gold nanoparticle-Cys-Dap-Lys-Ala-Pro-Glu-Thr-Ala-Leu-Asp-NH2 [Example 25]
Transport (%) (2h) [3]: 0.034%

H-Cys-Lys-Ala-Pro-Glu-Thr-Ala-Leu-Cys-NH2 (H-CKAPETALC-NH2; cysteine pairing not given here) [Example 2]
Transport (%) (2h) [1]: 3.1±1.0%
half life in human serum ([4]; 400 µM): 3 h

H-Cys-Lys-Ala-Pro-Glu-Thr-Ala-Leu-Cys-NH2 (H-CKAPETALC-NH2; cysteine pairing not given here) [Example 4]
Transport (%) (2h) [3]: 9.9±0.6%
Papp (x 10^6) cm/s ([3]; 2 h, Ringer-HEPES pH 7.4, 200 µM peptides): 6.1±0.4 (x 10^6) cm/s

H-KAPETAL-NH2 [Example 5, H-Lys-Ala-Pro-Glu-Thr-Ala-Leu-NH2]
Papp at 2 h [2]: 2 ± 0.6 ×10⁻⁶ cm/s
Transport (%) (2h) [1]: 2.3±0.8%
half-life at 400 µM [4]: ≤ 8 min

H-LPFFD-NH2 [H-Leu-Pro-Phe-Phe-Asp-NH2, reference compound]
detection of the cargo alone in the acceptor compartments by MALDI-TOF MS [1]: not detected

Lysozyme-V3-Cys-Asn-Cys-Lys-Ala-Pro-Glu-Thr-Ala-Leu-Cys-Ala-Ala-Ala-Cys-His-NH2 [Example 21]
Transport (%) (2h) [1]: 0.08±0.03%
Papp (x 10^6) cm/s [1]: 0.07±0.03 (x 10^6) cm/s

Quantum dot-PEG-NH-V1-Dap-Lys-Ala-Pro-Glu-Thr-Ala-Leu-Asp-NH2 [Example 24]
Transport (%) (2h) [3]: 0.23±0.09%

Source: patent EP3016671B1, “ACTIVELY T[…] PROTEASE-RESISTANT PEPTIDES AS BBB SHUTTLES AND SHUTTLE-CARGO CONSTRUCTS” (Universitat de Barcelona, priority 2013, dated 2015)
